Data as given in patent US20120316071A1 (published 2012).
Where a chain is given by its changes, count along the chain named. Names and notes keep the numbering of the source. Values belong to the binder of their own block, whether it stands above or below them.

Legend:
[1] = target: T1, rHuman P-Cadherin/Fc Chimera, CF (R&D Systems Cat#861-PC) (human, UniProt P22223 108-654); assay: ECL Multispot (MSD), antigen spotted on plate, 10 nM Fab; blank spot of this well 214
T1 construct: Bought recombinant protein; not shown: Fc portion of the purchased chimera

[2] = target: T2, rHuman Erythropoietin R/Fc Chimera, CF (R&D Systems Cat#963-ER) (human, UniProt P19235 25-250); assay: as above
T2 construct: Bought recombinant protein; also called EPO R; EPO R/Fc; not shown: Fc portion of the purchased chimera
T2 sequence (looked up): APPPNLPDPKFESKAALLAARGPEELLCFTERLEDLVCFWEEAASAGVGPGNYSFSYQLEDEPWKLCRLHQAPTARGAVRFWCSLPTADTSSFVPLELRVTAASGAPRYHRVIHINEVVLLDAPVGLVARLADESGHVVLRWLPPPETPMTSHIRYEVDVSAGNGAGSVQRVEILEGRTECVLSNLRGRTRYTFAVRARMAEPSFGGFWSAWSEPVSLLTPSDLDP

[3] = target: T3, rHuman ErbB2/Fc Chimera, CF (R&D Systems Cat#1129-ER) (human, UniProt P04626 23-652); assay: as above
T3 construct: Bought recombinant protein; also called human epidermal growth factor 2 receptor; not shown: Fc portion of the purchased chimera

[4] = target: T4, rHuman EGF R/Fc Chimera, CF (R&D Systems Cat#344-ER) (human, UniProt P00533 25-645); assay: as above
T4 construct: Bought recombinant protein; also called epidermal growth factor receptor; not shown: Fc portion of the purchased chimera

[5] = target: T5, rHuman HGF R/c-MET/Fc Chimera, CF (R&D Systems Cat#358-MT/CF) (human, UniProt P08581 25-932); assay: as above
T5 construct: Bought recombinant protein; also called HGF R/Fc; hepatocyte growth factor receptor; not shown: Fc portion of the purchased chimera

[6] = target: T6, rHuman Notch-1/Fc Chimera, CF (R&D Systems Cat#3647-TK) (human, UniProt P46531 19-526); assay: as above
T6 construct: Bought recombinant protein; the chimera holds only a part of it; not shown: Fc portion of the purchased chimera

[7] = target: T7, rHuman CD44/Fc Chimera, CF (R&D Systems Cat#3660-CD) (human, UniProt P16070 21-220); assay: as above
T7 construct: Bought recombinant protein; not shown: Fc portion of the purchased chimera

[8] = target: T8, rHuman IGF-1 sR, CF (R&D Systems Cat#391-GR) (human, UniProt P08069 31-932); assay: as above
T8 construct: Bought recombinant soluble receptor; The column head prints only 'IGF-1'; also called insulin-like growth factor-1 soluble receptor

[9] = target: T1, rHuman P-Cadherin/Fc Chimera, CF (R&D …); assay: ECL Multispot (MSD), antigen spotted on plate, 10 nM Fab; blank spot of this well 306
[10] = target: T2, rHuman Erythropoietin R/Fc Chimera, CF …; assay: as above
[11] = target: T3, rHuman ErbB2/Fc Chimera, CF (R&D …); assay: as above
[12] = target: T4, rHuman EGF R/Fc Chimera, CF (R&D …); assay: as above
[13] = target: T5, rHuman HGF R/c-MET/Fc Chimera, CF (R&D …); assay: as above
[14] = target: T6, rHuman Notch-1/Fc Chimera, CF (R&D …); assay: as above
[15] = target: T7, rHuman CD44/Fc Chimera, CF (R&D Systems …); assay: as above
[16] = target: T8, rHuman IGF-1 sR, CF (R&D Systems …); assay: as above
[17] = target: T9, rHuman IGF-1 sR, CF (R&D Systems Cat#391-GR) (human, UniProt P08069 31-932); assay: ECL Multispot (MSD), 10 nM Fab; blank 219
T9 construct: Bought soluble receptor; also called insulin-like growth factor-1 soluble receptor

[18] = target: T10, rHuman P-Cadherin/Fc Chimera, CF (R&D Systems Cat#861-PC) (human, UniProt P22223 108-654); assay: ECL Multispot (MSD), 10 nM Fab; blank 219
T10 construct: Bought reagent; Fc part of the bought chimera not given

[19] = target: T11, rHuman Erythropoietin R/Fc Chimera, CF (R&D Systems Cat#963-ER) (human, UniProt P19235 25-250); assay: ECL Multispot (MSD), 10 nM Fab; blank 219
T11 construct: Bought reagent; also called EPO R; EPO R/Fc; Fc part of the bought chimera not given
T11 sequence (looked up): T2 sequence (looked up)

[20] = target: T12, rHuman ErbB2/Fc Chimera, CF (R&D Systems Cat#1129-ER) (human, UniProt P04626 23-652); assay: ECL Multispot (MSD), 10 nM Fab; blank 219
T12 construct: Bought reagent; also called human epidermal growth factor 2 receptor; Fc part of the bought chimera not given

[21] = target: T13, rHuman EGF R/Fc Chimera, CF (R&D Systems Cat#344-ER) (human, UniProt P00533 25-645); assay: ECL Multispot (MSD), 10 nM Fab; blank 219
T13 construct: Bought reagent; also called epidermal growth factor receptor; Fc part of the bought chimera not given

[22] = target: T14, rHuman HGF R/c-MET/Fc Chimera, CF (R&D Systems Cat#358-MT/CF) (human, UniProt P08581 25-932); assay: ECL Multispot (MSD), 10 nM Fab; blank 219
T14 construct: Bought reagent; also called HGF R/Fc; hepatocyte growth factor receptor; Fc part of the bought chimera not given

[23] = target: T15, rHuman Notch-1/Fc Chimera, CF (R&D Systems Cat#3647-TK) (human, UniProt P46531 19-526); assay: ECL Multispot (MSD), 10 nM Fab; blank 219
T15 construct: Bought reagent; Fc part of the bought chimera not given

[24] = target: T16, rHuman CD44/Fc Chimera, CF (R&D Systems Cat#3660-CD) (human, UniProt P16070 21-220); assay: ECL Multispot (MSD), 10 nM Fab; blank 219
T16 construct: Bought reagent; Fc part of the bought chimera not given

ECL signal [1]: 152 | ECL signal [2]: 179 | ECL signal [3]: 202 | ECL signal [4]: 138 | ECL signal [5]: 190 | ECL signal [6]: 189 | ECL signal [7]: 199 | ECL signal [8]: 190 | ECL signal [9]: 422 | ECL signal [10]: 312 | ECL signal [11]: 378 | ECL signal [12]: 277 | ECL signal [13]: 317 | ECL signal [14]: 370 | ECL signal [15]: 262 | ECL signal [16]: 207
B1: Fab VH1-46_IGHD6-6*01_IGHJ1*01 S102A/S103P/S104F (APF) & L6_IGKJ1*01 (Fab, V domains shown)
VH: QVQLVQSGAEVKKPGASVKVSCKASGYTFTSYYMHWVRQAPGQGLEWMGIINPSGGSTSYAQKFQGRVTMTRDTSTSTVYMELSSLRSEDTAVYYCAREEYAPFSAEYFQHWGQGTLVTVSS
VL: not shown
notes: Tested as a Fab expressed in E. coli: the heavy chain from Plasmid A (CH1, His6 and Flag tags), the kappa light chain from Plasmid C (CL kappa); also called H:APF & L:wt; APF triple mutant

ECL signal [17]: 312 | ECL signal [18]: 308 | ECL signal [19]: 204 | ECL signal [20]: 189 | ECL signal [21]: 226 | ECL signal [22]: 212 | ECL signal [23]: 156 | ECL signal [24]: 192
B2: Fab VH1-46_IGHD6-6*01_IGHJ1*01 S102A/S103P/S104F A106E & L6_IGKJ1*01 (Fab, V domains shown)
VH: B1 VH with A106E
VL: not shown
notes: Tested as a Fab (CH1 with His6/Flag tags, kappa CL); also called APF A106E
